According to US20030199679A1:

Columns and labels:
[1] = molecular target: recombinant human TNF-alpha (human) (UniProt P01375); test: Scatchard analysis, 125I-TNF and unlabelled TNF in solution, antibody taken out with anti-IgG agarose beads
[2] = molecular target: recombinant human TNF-alpha (human) (UniProt P01375); test: standard assay of binding to human TNFα

Kd [1]: 0.14 nM
Kd [2]: 0.087 nM
Substance: CDP571 (CDR-grafted CB0010, grafted light chain gEU and grafted heavy chain 2hEUg) (antibody)
